Laboratory results as given in patent US20220195043A1 (BEIJING MABWORKS BIOTECH, published 2022).

Legend:
[1] = molecular target: T1, human TCR/CD3 complex on cell surfaces (primary human CD4+ T cells; Jurkat cells; human PBMCs) (human, UniProt P07766 23-207); assay: FACS on Jurkat cells, PE goat anti-human IgG, MFI
T1 construct: whole, on cells; Native complex on cells; the γ, δ, ζ and TCR chains of the complex are present on the cells too; also called human CD3 complexes on cell surfaces; human CD3+ T cells
T1 sequence (P07766 23-207, one chain of several): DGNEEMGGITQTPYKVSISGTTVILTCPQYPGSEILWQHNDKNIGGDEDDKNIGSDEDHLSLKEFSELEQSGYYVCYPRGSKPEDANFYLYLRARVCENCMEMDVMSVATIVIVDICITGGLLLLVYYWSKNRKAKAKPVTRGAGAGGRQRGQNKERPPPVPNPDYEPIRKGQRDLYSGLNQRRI

[2] = molecular target: T2, human CD64 (HEK293A/human CD64 cells) (human, UniProt P12314 16-374); assay: FACS on HEK293A/human CD64 cells, PE F(ab')2 goat anti-human IgG Fc, MFI; bars at 40, 8, 1.6, 0.32 and 0.064 µg/mL
T2 construct: Stably expressed on HEK293A cells; also called FcγRI
T2 sequence (P12314 16-374 limits assumed): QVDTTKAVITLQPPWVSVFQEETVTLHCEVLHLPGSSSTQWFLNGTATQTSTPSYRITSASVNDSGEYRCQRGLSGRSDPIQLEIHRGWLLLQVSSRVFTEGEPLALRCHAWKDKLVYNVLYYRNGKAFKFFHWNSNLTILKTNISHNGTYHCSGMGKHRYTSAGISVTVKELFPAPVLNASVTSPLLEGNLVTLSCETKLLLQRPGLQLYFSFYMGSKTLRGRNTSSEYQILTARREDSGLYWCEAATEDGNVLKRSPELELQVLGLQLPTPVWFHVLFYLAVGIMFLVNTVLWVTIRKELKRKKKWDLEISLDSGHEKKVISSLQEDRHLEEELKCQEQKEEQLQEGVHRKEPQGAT

[3] = molecular target: T3, human CD32A (HEK293A/human CD32A cells) (human, UniProt P12318 34-317); assay: FACS on HEK293A/human CD32A cells, PE F(ab')2 goat anti-human IgG Fc, MFI; bars at 40, 8, 1.6, 0.32 and 0.064 µg/mL
T3 construct: Stably expressed on HEK293A cells; also called FcγRIIA
T3 sequence: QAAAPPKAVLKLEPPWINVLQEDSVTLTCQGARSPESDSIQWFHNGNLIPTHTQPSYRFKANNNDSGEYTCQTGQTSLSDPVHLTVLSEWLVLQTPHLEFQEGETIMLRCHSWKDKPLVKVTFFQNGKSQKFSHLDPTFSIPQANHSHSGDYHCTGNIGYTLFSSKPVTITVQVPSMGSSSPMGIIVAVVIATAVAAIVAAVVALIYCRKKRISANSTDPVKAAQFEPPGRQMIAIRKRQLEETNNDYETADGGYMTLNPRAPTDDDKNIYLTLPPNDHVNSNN

[4] = molecular target: T4, human CD16A (HEK293A/human CD16A cells) (human, UniProt P08637 17-254); assay: FACS on HEK293A/human CD16A cells, PE F(ab')2 goat anti-human IgG Fc, MFI; bars at 40, 8, 1.6, 0.32 and 0.064 µg/mL
T4 construct: Stably expressed on HEK293A cells; also called FcγRIIIA
T4 sequence (P08637 17-254 F176V limits assumed): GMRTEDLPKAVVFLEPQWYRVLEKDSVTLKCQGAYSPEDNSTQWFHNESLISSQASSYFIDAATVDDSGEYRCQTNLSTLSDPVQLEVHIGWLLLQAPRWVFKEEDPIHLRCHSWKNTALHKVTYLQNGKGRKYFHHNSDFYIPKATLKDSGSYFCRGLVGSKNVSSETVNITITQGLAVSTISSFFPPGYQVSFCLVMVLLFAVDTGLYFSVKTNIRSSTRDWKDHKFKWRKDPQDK

[5] = molecular target: T5, human CD3ε-his (Cat #:10977-H08s, SinoBiological, China) (human, UniProt P07766 23-126); assay: ELISA: plate coated with human CD3ε-his, antibody titrated, HRP goat anti-human IgG, OD450
T5 construct: Bought protein; also called human CD3ε protein; recombinant human CD3ε; not shown: his tag
T5 sequence (P07766 23-126 limits assumed): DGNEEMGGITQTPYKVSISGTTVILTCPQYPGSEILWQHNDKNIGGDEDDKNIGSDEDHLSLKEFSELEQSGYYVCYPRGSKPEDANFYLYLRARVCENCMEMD

[6] = molecular target: T6, monkey CD3ε-his (Cat #: 90047-C08H, SinoBiological, China) (monkey, UniProt Q95LI5 22-117); assay: ELISA: plate coated with monkey CD3ε-his, antibody titrated, HRP goat anti-human IgG, OD450
T6 construct: Bought protein; also called monkey CD3ε protein; recombinant monkey CD3ε
T6 sequence: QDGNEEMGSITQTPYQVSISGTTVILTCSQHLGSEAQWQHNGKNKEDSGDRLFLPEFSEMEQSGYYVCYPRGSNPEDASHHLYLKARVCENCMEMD

[7] = molecular target: T1, human TCR/CD3 complex on cell surfaces …; assay: FACS on primary human T cells, PE goat anti-human IgG, MFI

B1: 15H3L3-LLN (15H3L3 with IgG1 constant region L234A/L235A/N297A) (antibody)
heavy: EVQLLESGGGLVQPGGSLRLSCAASGFTFNTYAMNWVRQAPGKGLEWVARIRSKYNNYATYYAISVKDRFTISRDDSKNTLYLQMNSLRAEDTAMYYCVRHGNFGNSYLSYWAYWGQGTLVTVSSASTKGPSVFPLAPSSKSTSGGTAALGCLVKDYFPEPVTVSWNSGALTSGVHTFPAVLQSSGLYSLSSVVTVPSSSLGTQTYICNVNHKPSNTKVDKKVEPKSCDKTHTCPPCPAPEAAGGPSVFLFPPKPKDTLMISRTPEVTCVVVDVSHEDPEVKFNWYVDGVEVHNAKTKPREEQYASTYRVVSVLTVLHQDWLNGKEYKCKVSNKALPAPIEKTISKAKGQPREPQVYTLPPSREEMTKNQVSLTCLVKGFYPSDIAVEWESNGQPENNYKTTPPVLDSDGSFFLYSKLTVDKSRWQQGNVFSCSVMHEALHNHYTQKSLSLSPGK
light: QAVVTQEPSLTVSPGGTVTLTCQSSTGAVTTNNYANWVQQKPGHAFRGLIGGTKQRAPGVPARFSGSLLGGKAALTLSGVQPEDEAEYYCVLWYSNLWVFGGGTKLTVLGQPKAAPSVTLFPPSSEELQANKATLVCLISDFYPGAVTVAWKADSSPVKAGVETTTPSKQSNNKYAASSYLSLTPEQWKSHRSYSCQVTHEGSTVEKTVAPT
EC50 (read off the curve) [1]: ~0.09 µg/mL
binding result [2]: no binding (tested: 40 µg/mL)
binding result [3]: no binding (tested: 40 µg/mL)
binding result [4]: no binding (tested: 40 µg/mL)

B2: 15H3L3-LLP (15H3L3 with IgG1 constant region L234A/L235A/P329G) (antibody)
heavy: EVQLLESGGGLVQPGGSLRLSCAASGFTFNTYAMNWVRQAPGKGLEWVARIRSKYNNYATYYAISVKDRFTISRDDSKNTLYLQMNSLRAEDTAMYYCVRHGNFGNSYLSYWAYWGQGTLVTVSSASTKGPSVFPLAPSSKSTSGGTAALGCLVKDYFPEPVTVSWNSGALTSGVHTFPAVLQSSGLYSLSSVVTVPSSSLGTQTYICNVNHKPSNTKVDKKVEPKSCDKTHTCPPCPAPEAAGGPSVFLFPPKPKDTLMISRTPEVTCVVVDVSHEDPEVKFNWYVDGVEVHNAKTKPREEQYNSTYRVVSVLTVLHQDWLNGKEYKCKVSNKALGAPIEKTISKAKGQPREPQVYTLPPSREEMTKNQVSLTCLVKGFYPSDIAVEWESNGQPENNYKTTPPVLDSDGSFFLYSKLTVDKSRWQQGNVFSCSVMHEALHNHYTQKSLSLSPGK
light: QAVVTQEPSLTVSPGGTVTLTCQSSTGAVTTNNYANWVQQKPGHAFRGLIGGTKQRAPGVPARFSGSLLGGKAALTLSGVQPEDEAEYYCVLWYSNLWVFGGGTKLTVLGQPKAAPSVTLFPPSSEELQANKATLVCLISDFYPGAVTVAWKADSSPVKAGVETTTPSKQSNNKYAASSYLSLTPEQWKSHRSYSCQVTHEGSTVEKTVAPT
EC50 (read off the curve) [1]: ~0.09 µg/mL
binding result [2]: no binding (tested: 40 µg/mL)
binding result [4]: no binding (tested: 40 µg/mL)

B3: humanized anti-CD3 antibody 15H2L3 (human IgG1) (antibody, V domains shown)
VH: EVQLLESGGGLVQPGGSLRLSCAASGFTFNTYAMNWVRQAPGKGLEWVARIRSKYNNYATYYAISVKDRFTISRDNSKNTLYLQMNSLRAEDTAVYYCVKHGNFGNSYLSYWAYWGQGTLVTVSS
VL: QAVVTQEPSLTVSPGGTVTLTCQSSTGAVTTNNYANWVQQKPGHAFRGLIGGTKQRAPGVPARFSGSLLGGKAALTLSGVQPEDEAEYYCVLWYSNLWVFGGGTKLTVLG
EC50 (read off the curve) [5]: ~80 µg/mL
EC50 (read off the curve) [6]: ~90 µg/mL

B4: chimeric antibody 19-37 (full length, human IgG1) (antibody, V domains shown)
VH: EVKLLESGGGLVQPKGSLKLSCAASGFTFNTYAMNWVRQAPGKGLEWVARIRSKYNNYATYYAISVKDRFTISRDDSQSILYLQMNNLKTEDTAMYYCVRHGNFGNSYISYWAYWGQGTLVTVSA
VL: QAVVTQESALTTSPGETVTLTCRSSTGAVTTNNYANWVQEKPDHLFTGLIGGTRLSAPGVPARFSGSLIGDKAALTITGAQTEDEAIYFCVLWYSNLWVFGGGTKLTVLG
EC50 (read off the curve) [7]: ~100 µg/mL
